Measured values as given in the domain aggregation screens of Martell et al. (2025).

Experiment: soluble fraction after stress (log2 fold change); higher = more stays soluble; pooled small domains, quantitative proteomics
Settings: stress: 50 degC
In short: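 Pooled custom libraries of small protein domains were each held under stress at 50°C. The read-out, high-throughput quantitative proteomics, tracked how much of each protein stayed soluble. This is reported as a base-two log fold change used to indicate aggregation propensity. Higher values mean more protein remains in solution.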

Going from “HMIIYGLNPVKDFINLFPNKISTLFISKNKLSDSEMKSVVNINTVYVSDAELKRITGTTKHQSLAAEID” to “HMGETAFRYALPLDQGEALKRSHVIRQSISPDDALATRVTVLEDVLDQTLRQPVQAGEVLLEDHFTR”, the “soluble fraction (log2)” value rises from -1.21 to -0.00712.

Compared with “HMGMSMNEFLNNRLEQLAVEAVDKSSLGEEIFFYAEPATINLFKDAVDEDEYKVVFPVLKSIIEVEQKLSR”, “HMAPFVIQQGQDVRLISKGPGFAVSNDGKALTNAAEGQLARARTANGQTVSGIARQGGIIEIA” is higher in “soluble fraction (log2)” value: -1.03 for the first, 0.00455 for the second.

Going from “HMLISYRVDALANEAGLSVDTIRYYQKLGILDPPKRTGRHSEYSPDHLERLIEIRRLADAGLTLSQISEI” to “HMAPAILTVQVKPDKIREIIGPGGKMIRMIQSETNTRVEVDDSGLVKIAAVSKEEGEAALKMVSDITME”, the “soluble fraction (log2)” value rises from -2.46 to 0.134.

Compared with “HMKPAFTPYVVKVTADVLNVRSGPGTNYGITTKVKKGEAYTIVEEKNGWGKLKSGAGWISLEYTVK”, “HMNIWNEWAFKKWIESDEYTGPDMTDFGHRTLVDEEFSKQYKEQMSLFKERVLTDDEFSAKYGDL” is lower in “soluble fraction (log2)” value: -0.109 for the first, -0.66 for the second.

Going from “HMVKLQATPSQRKTLDELYVQLKKLEPTAKEDLSLLRRLENSHLVSKQEAQGLISKAIGRVGALAVEQQP” to “HMVSTEDEISDKLLLDFALEKLSENEKQIVKLRYYNSLTQSKTAEILNMTQVQVSRSEKKILAKLRGII”, the “soluble fraction (log2)” value falls from 0.0652 to -0.267.

“HMEKLPRYILPGVPKVKSINISSALDGLVQDYSREFNISQKDIFQIALVEFFKKYGYHNAVKAVL” and “HMFWVESDVDFVDKTSAHNAIKENERVIGMYISYRLNGTWTTEQYVGIDTSKDNWENPDNWNIL” are within 0.2 log units of each other in “soluble fraction (log2)” value: -0.314 for the first, -0.308 for the second.

Compared with “HMKKLTGVQKAAILMIALGPDISSSIIKRLPENMVERITYEIANMTKITAQQRNDILKEFMDMTVAQ”, “HMIDMQIDTARFGTLGVDDDKIITFPKGLPGFEDERRFFLMDHSGSSKIKWLHSADNPGLALV” is higher in “soluble fraction (log2)” value: -1.02 for the first, -0.0658 for the second.

First: HMQKAQEYILVDIKGEVQTPGVYKLPVNSRVIDAIEASGGLTKKAVTTYINLSKTLKDENVIIINKKSEL
Second: HMGDYERVPEYKGKLTSDLTMEDSQKFAFRFIWQNSDEDEGKIIDQDPPAGKSVAKGSEIVLYVSNG
The “soluble fraction (log2)” value of the first is lower: -0.2 for the first, 0.35 for the second.

First: HMGNGDTNERIATLMQILAKQESIINQYGLENPVVSPQMYVRTLKKVVELSGFKDASSYFADIPDGWKA
Second: HMPTGRVVIPLNRLTASDVARILDEAYGRDHNFEVVKPSRLAKGIIVIGPKSEIDGIKELLAH
The “soluble fraction (log2)” value of the first is higher: -0.00533 for the first, -0.535 for the second.

Compared with “HMIKSIRELAEVITLWKNQGKTILIAEHRLSYLMDLADRVLYMKDGQIENDFSMADFRKIPPDEISRMGLR”, “HMNRPQDLGEPYDGQFREHPEAWAFYAAQSPSYRRSASWWVLGAKQEVTRQRRLAALIDASAQGTRIPALT” is lower in “soluble fraction (log2)” value: -0.126 for the first, -1.09 for the second.

Compared with “HMQDLPPIHLSRGMTDYTLVRSRRRTLSMELKRDGTVVVHAPLRLGVEKIDAFVAAHEAWLARARTRQAER”, “HMRRMTEEQSKLFQGLVSIVQTTLVADMEKGAVTPLLIAEKVDFVADNLYPGKDIDRKEAVAELIRRFSLW” is higher in “soluble fraction (log2)” value: -2.41 for the first, -0.339 for the second.

“HMGQPGNWTSYVFKNSDTEPAKPTSSGPIPSGWNDAPTGVGIWWMSKATIDASTGKAGSWSTPIRVTGED” and “HMTNNDIIRRVRYLFNFSDKQVIELFKLANETVSIEHVSGWLKKEEDPTLIEISDRDLAVFLNGLII” are within 0.2 log units of each other in “soluble fraction (log2)” value: 0.0592 for the first, 0.237 for the second.

First: HMNSTVKVPNVVGMSVPQAKALLEQNHLLVQGIREVSTDKAPAGIVINQLPYSDAEVKEERHIYLTVSKGK
Second: HMSNTVEDLIDDIGTVTKDSKDKIDAARKAYDGLTEDQKKLVPDSVLKTLTDAEAAYAKLTK
The “soluble fraction (log2)” value of the first is higher: at least 0.62 for the first, -0.0576 for the second.

Compared with “HMTMIIQLDKNITQEQRQFLVEELNRLSISPNFVSTQFTNYIVGIPKKEFDIRLIGNLPGIADIHFV”, “HMTKQEYLNQLKNELVKQGVADAEDVVTEYEQHFAFKLADGFGEEEIAKKLGDPAAIASQFVG” is higher in “soluble fraction (log2)” value: -0.183 for the first, 0.293 for the second.

First: HMAAQDLIVKTDASQVEARVLEISPDAVRYKRFSNPDGPTYVLPVAEIRYIRYANGEVEYYA
Second: HMKIKKIWFDGDYIYGMDERNNTYRQSLLWYSKLRNASAEERERYTFSTIGIHWRELDEDVSFESF
The “soluble fraction (log2)” value of the first is higher: -0.0166 for the first, -3.14 for the second.
